Experimental data: the Immune Epitope Database (IEDB)

What was measured:
[1] = target: HLA-A*25:01; experiment: IEDB peptide-MHC binding, purified MHC/direct/fluorescence; filed as Kd, often an IC50 or EC50 that approximates it; ≥ and ≤ were set here for values at or beyond the usual limits of such assays; settings: source organism: West Nile virus strain PTRoxo
[2] = target: HLA-A*29:02; experiment: as above; settings: source organism: West Nile virus strain PTRoxo
[3] = target: HLA-A*30:01; experiment: as above; settings: source organism: West Nile virus strain PTRoxo
[4] = target: HLA-A*80:01; experiment: as above; settings: source organism: West Nile virus strain PTRoxo
[5] = target: HLA-B*15:01; experiment: as above; settings: source organism: West Nile virus strain PTRoxo
[6] = target: HLA-B*18:01; experiment: as above; settings: source organism: West Nile virus strain PTRoxo
[7] = target: HLA-B*44:02; experiment: as above; settings: source organism: West Nile virus strain PTRoxo
[8] = target: HLA-B*51:01; experiment: as above; settings: source organism: West Nile virus
[9] = target: HLA-B*57:01; experiment: as above; settings: source organism: West Nile virus strain PTRoxo
[10] = target: HLA-B*58:01; experiment: as above; settings: source organism: West Nile virus strain PTRoxo
[11] = target: HLA-A*26:01; experiment: IEDB peptide-MHC binding, purified MHC/competitive/fluorescence; filed as Kd, often an IC50 or EC50 that approximates it; ≥ and ≤ were set here for values at or beyond the usual limits of such assays
[12] = target: HLA-A*01:01; experiment: as above; settings: source organism: Human immunodeficiency virus 1
[13] = target: HLA-A*11:01; experiment: as above; settings: source organism: Human immunodeficiency virus 1
[14] = target: HLA-A*26:02; experiment: as above; settings: source organism: Human immunodeficiency virus 1
[15] = target: HLA-A*26:03; experiment: as above; settings: source organism: Human immunodeficiency virus 1
[16] = target: HLA-B*08:01; experiment: as above; settings: source organism: Human immunodeficiency virus 1
[17] = target: HLA-B*08:03; experiment: as above; settings: source organism: Human immunodeficiency virus 1
[18] = target: HLA-B*15:01; experiment: as above; settings: source organism: Human immunodeficiency virus 1
[19] = target: HLA-B*15:09; experiment: as above; settings: source organism: Human immunodeficiency virus 1
[20] = target: HLA-B*18:01; experiment: as above; settings: source organism: Human immunodeficiency virus 1
[21] = target: HLA-A*24:02; experiment: as above; settings: source organism: Hepacivirus hominis
[22] = target: HLA-B*15:42; experiment: as above; settings: source organism: Hepacivirus hominis
[23] = target: HLA-B*45:06; experiment: as above; settings: source organism: Hepacivirus hominis
[24] = target: HLA-B*83:01; experiment: as above; settings: source organism: Hepacivirus hominis

Sequence: EIPDVLNSL
- Kd [1]: 0.023 µM
- Kd [2]: ≥ 20 µM
- Kd [3]: ≥ 20 µM
- Kd [4]: ≥ 20 µM
- Kd [5]: ≥ 20 µM
- Kd [6]: ≥ 20 µM
- Kd [7]: ≥ 20 µM
- Kd [8]: ≥ 20 µM
- Kd [9]: ≥ 20 µM
- Kd [10]: ≥ 20 µM
- Kd ([11]; source organism: West Nile virus): 0.277 µM

Sequence: GTEEIKSLY
- Kd [12]: 0.0138 µM
- Kd [13]: ≥ 20 µM
- Kd ([11]; source organism: Human immunodeficiency virus 1): 1.57 µM
- Kd [14]: 1.21 µM
- Kd [15]: ≥ 20 µM
- Kd [16]: ≥ 20 µM
- Kd [17]: ≥ 20 µM
- Kd [18]: ≥ 20 µM
- Kd [19]: ≥ 20 µM
- Kd [20]: 0.0777 µM

Sequence: LLPRRGPRL
- Kd [21]: 0.09 µM
- Kd [22]: ≥ 5 µM
- Kd [23]: ≥ 5 µM
- Kd [24]: ≥ 5 µM
